Reference: US20110171229A1
Blank lines part the entries; values can stand above or below the substance they belong to.

Tests used:
[1] = molecular target: chondroitin sulfate proteoglycan 4 (CSPG4) (human) (UniProt Q6UVK1); experiment: flow cytometry (FACS), CD44+/CD24-/lo putative CSC subpopulation of SUM-149 cells
[2] = molecular target: chondroitin sulfate proteoglycan 4 (CSPG4) (human) (UniProt Q6UVK1); experiment: flow cytometry (FACS), whole cell population of T-47D cells
[3] = molecular target: chondroitin sulfate proteoglycan 4 (CSPG4) (human) (UniProt Q6UVK1); experiment: flow cytometry (FACS), CD44+/CD24-/lo putative CSC subpopulation of MDA-MB-231 cells
[4] = molecular target: chondroitin sulfate proteoglycan 4 (CSPG4) (human) (UniProt Q6UVK1); experiment: flow cytometry (FACS), whole cell population of MCF-7 cells
[5] = molecular target: chondroitin sulfate proteoglycan 4 (CSPG4) (human) (UniProt Q6UVK1); experiment: flow cytometry (FACS), whole cell population of SUM-149 cells
[6] = molecular target: chondroitin sulfate proteoglycan 4 (CSPG4) (human) (UniProt Q6UVK1); experiment: flow cytometry (FACS), whole cell population of SK-BR-3 cells
[7] = molecular target: chondroitin sulfate proteoglycan 4 (CSPG4) (human) (UniProt Q6UVK1); experiment: flow cytometry (FACS), CD44+/CD24-/lo putative CSC subpopulation of MCF-7 cells
[8] = molecular target: chondroitin sulfate proteoglycan 4 (CSPG4) (human) (UniProt Q6UVK1); experiment: cell-based or functional assay
[9] = molecular target: chondroitin sulfate proteoglycan 4 (CSPG4) (human) (UniProt Q6UVK1); experiment: flow cytometry (FACS), whole cell population of HS578T cells
[10] = molecular target: chondroitin sulfate proteoglycan 4 (CSPG4) (human) (UniProt Q6UVK1); experiment: flow cytometry (FACS), whole cell population of MDA-MB-231 cells
[11] = molecular target: chondroitin sulfate proteoglycan 4 (CSPG4) (human) (UniProt Q6UVK1); experiment: flow cytometry (FACS), CD44+/CD24-/lo putative CSC subpopulation of MDA-MB-435 cells
[12] = molecular target: chondroitin sulfate proteoglycan 4 (CSPG4) (human) (UniProt Q6UVK1); experiment: flow cytometry (FACS), CD44+/CD24-/lo putative CSC subpopulation of HS578T cells
[13] = molecular target: chondroitin sulfate proteoglycan 4 (CSPG4) (human) (UniProt Q6UVK1); experiment: flow cytometry (FACS), whole cell population of MDA-MB-435 cells
[14] = molecular target: chondroitin sulfate proteoglycan 4 (CSPG4) (human) (UniProt Q6UVK1); experiment: flow cytometry (FACS), whole cell population of SUM-149 cells; control antibody
[15] = molecular target: chondroitin sulfate proteoglycan 4 (CSPG4) (human) (UniProt Q6UVK1); experiment: flow cytometry (FACS), CD44+/CD24-/lo putative CSC subpopulation of SUM-149 cells; control antibody
[16] = molecular target: chondroitin sulfate proteoglycan 4 (CSPG4) (human) (UniProt Q6UVK1); experiment: flow cytometry (FACS), CD44+/CD24-/lo putative CSC subpopulation of HS578T cells; control antibody
[17] = molecular target: chondroitin sulfate proteoglycan 4 (CSPG4) (human) (UniProt Q6UVK1); experiment: flow cytometry (FACS), whole cell population of SK-BR-3 cells; control antibody
[18] = molecular target: chondroitin sulfate proteoglycan 4 (CSPG4) (human) (UniProt Q6UVK1); experiment: flow cytometry (FACS), whole cell population of MDA-MB-435 cells; control antibody
[19] = molecular target: chondroitin sulfate proteoglycan 4 (CSPG4) (human) (UniProt Q6UVK1); experiment: flow cytometry (FACS), CD44+/CD24-/lo putative CSC subpopulation of MDA-MB-435 cells; control antibody
[20] = molecular target: chondroitin sulfate proteoglycan 4 (CSPG4) (human) (UniProt Q6UVK1); experiment: flow cytometry (FACS), whole cell population of T-47D cells; control antibody
[21] = molecular target: chondroitin sulfate proteoglycan 4 (CSPG4) (human) (UniProt Q6UVK1); experiment: flow cytometry (FACS), whole cell population of MDA-MB-231 cells; control antibody
[22] = molecular target: chondroitin sulfate proteoglycan 4 (CSPG4) (human) (UniProt Q6UVK1); experiment: flow cytometry (FACS), whole cell population of MCF-7 cells; control antibody
[23] = molecular target: chondroitin sulfate proteoglycan 4 (CSPG4) (human) (UniProt Q6UVK1); experiment: flow cytometry (FACS), whole cell population of HS578T cells; control antibody
[24] = molecular target: chondroitin sulfate proteoglycan 4 (CSPG4) (human) (UniProt Q6UVK1); experiment: flow cytometry (FACS), CD44+/CD24-/lo putative CSC subpopulation of MDA-MB-231 cells; control antibody
[25] = molecular target: chondroitin sulfate proteoglycan 4 (CSPG4) (human) (UniProt Q6UVK1); experiment: flow cytometry (FACS), CD44+/CD24-/lo putative CSC subpopulation of MCF-7 cells; control antibody

Sequence of UniProt Q6UVK1 (Q6UVK1 30-2322): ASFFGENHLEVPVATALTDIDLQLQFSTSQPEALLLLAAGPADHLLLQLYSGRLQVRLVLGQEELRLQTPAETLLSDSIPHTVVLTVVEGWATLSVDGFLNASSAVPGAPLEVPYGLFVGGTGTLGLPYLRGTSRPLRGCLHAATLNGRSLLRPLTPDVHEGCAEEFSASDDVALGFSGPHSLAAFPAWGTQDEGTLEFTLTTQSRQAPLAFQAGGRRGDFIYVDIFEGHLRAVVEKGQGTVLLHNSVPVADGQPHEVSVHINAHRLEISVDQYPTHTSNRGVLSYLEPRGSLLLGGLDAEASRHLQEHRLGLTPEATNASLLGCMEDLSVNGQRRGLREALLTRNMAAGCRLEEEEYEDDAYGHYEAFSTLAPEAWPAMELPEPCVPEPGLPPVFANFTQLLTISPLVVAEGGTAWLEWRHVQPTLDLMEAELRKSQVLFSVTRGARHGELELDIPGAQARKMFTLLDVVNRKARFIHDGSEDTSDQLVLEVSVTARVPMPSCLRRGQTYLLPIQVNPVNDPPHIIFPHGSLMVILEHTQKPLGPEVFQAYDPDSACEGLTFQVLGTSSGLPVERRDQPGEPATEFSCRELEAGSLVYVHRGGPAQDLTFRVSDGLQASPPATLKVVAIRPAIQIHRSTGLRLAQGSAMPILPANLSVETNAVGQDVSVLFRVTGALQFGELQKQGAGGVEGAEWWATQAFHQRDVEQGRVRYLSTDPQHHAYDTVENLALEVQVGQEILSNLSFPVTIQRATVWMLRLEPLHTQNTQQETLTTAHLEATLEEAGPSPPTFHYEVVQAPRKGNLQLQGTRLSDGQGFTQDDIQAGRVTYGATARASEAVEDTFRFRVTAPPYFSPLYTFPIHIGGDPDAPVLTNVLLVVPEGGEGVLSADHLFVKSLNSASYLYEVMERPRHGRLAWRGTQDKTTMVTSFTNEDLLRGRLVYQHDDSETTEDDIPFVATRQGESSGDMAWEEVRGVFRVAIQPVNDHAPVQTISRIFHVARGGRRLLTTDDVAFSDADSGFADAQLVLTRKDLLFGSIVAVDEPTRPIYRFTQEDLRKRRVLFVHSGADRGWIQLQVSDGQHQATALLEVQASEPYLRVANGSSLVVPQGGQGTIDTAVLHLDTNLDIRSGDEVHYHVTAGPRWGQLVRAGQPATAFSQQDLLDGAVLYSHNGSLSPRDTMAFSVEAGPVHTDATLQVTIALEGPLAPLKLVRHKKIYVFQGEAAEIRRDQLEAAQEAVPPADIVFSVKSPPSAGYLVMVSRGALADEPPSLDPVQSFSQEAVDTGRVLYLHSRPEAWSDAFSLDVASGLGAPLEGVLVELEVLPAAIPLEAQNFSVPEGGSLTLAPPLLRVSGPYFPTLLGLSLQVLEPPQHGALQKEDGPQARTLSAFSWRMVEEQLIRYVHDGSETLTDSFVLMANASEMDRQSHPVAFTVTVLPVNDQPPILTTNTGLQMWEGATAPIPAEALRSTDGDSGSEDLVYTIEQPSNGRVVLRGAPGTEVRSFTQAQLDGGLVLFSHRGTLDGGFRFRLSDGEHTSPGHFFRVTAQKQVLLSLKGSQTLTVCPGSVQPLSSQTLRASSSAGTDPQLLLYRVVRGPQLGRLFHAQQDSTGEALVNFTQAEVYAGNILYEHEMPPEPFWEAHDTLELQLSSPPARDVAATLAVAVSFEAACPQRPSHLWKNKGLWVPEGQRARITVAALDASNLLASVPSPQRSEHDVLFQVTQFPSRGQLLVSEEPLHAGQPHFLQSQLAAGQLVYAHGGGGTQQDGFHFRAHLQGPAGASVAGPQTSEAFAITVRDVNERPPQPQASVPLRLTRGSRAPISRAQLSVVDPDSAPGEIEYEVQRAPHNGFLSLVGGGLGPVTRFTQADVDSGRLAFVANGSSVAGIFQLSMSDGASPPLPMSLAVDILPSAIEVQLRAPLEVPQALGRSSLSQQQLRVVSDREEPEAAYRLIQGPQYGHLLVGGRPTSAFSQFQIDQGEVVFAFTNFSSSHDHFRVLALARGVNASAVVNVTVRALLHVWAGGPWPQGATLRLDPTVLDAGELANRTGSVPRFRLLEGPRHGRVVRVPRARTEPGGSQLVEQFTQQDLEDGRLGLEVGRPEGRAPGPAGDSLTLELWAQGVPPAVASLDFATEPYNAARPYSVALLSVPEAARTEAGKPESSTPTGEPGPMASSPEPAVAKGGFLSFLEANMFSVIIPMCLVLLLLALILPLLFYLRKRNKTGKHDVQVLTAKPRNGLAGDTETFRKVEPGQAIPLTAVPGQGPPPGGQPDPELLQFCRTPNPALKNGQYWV

Substance: Isotype control (antibody)
% of stained cells [14]: 2%
MFI [14]: 2.7
% of stained cells [15]: 0.5%
% of stained cells [16]: 0.5%
MFI [16]: 10
MFI [17]: 4.3
% of stained cells [18]: 0.7%
MFI [18]: 9.1
% of stained cells [19]: 0.5%
MFI [19]: 3
% of stained cells [20]: 6.2%
MFI [20]: 10.4
% of stained cells [21]: 0.3%
MFI [21]: 9.8
% of stained cells [22]: 0.7%
MFI [22]: 6.2
% of stained cells [23]: 0.4%
MFI [23]: 13
% of stained cells [24]: 0.4%
MFI [24]: 3.7
% of stained cells [25]: 0.6%
MFI [25]: 1.8

Substance: CSPG4-specific mAb TP61.5 (antibody)
% of stained cells [1]: 51.2%
MFI [1]: 10.5
% of stained cells [2]: 0%
MFI [2]: 2.3
% of stained cells [3]: 75.6%
MFI [3]: 33.6
% of stained cells [4]: 3.5%
MFI [4]: 7.8
% of stained cells [5]: 51.1%
MFI [5]: 19.6
% of stained cells [6]: 0.1%
MFI [6]: 2.4
% of stained cells [7]: 9.9%
MFI [7]: 3.2
% of stained cells [9]: 92.3%
MFI [9]: 109
% of stained cells [10]: 68.3%
MFI [10]: 86.3
% of stained cells [11]: 98%
MFI [11]: 93
% of stained cells [12]: 72.4%
MFI [12]: 34.4
% of stained cells [13]: 82.4%
MFI [13]: 61.1

Now from value to substance:

% of stained cells [1]: 95.7%
MFI [1]: 179
% of stained cells [2]: 13%
MFI [2]: 3.8
% of stained cells [3]: 85.7%
MFI [3]: 53.8
% of stained cells [4]: 8.5%
MFI [4]: 12
% of stained cells [5]: 93.4%
MFI [5]: 193
% of stained cells [6]: 1.5%
MFI [6]: 4.6
% of stained cells [7]: 11.4%
MFI [7]: 9.8
inhibition of adhesion of cells to fibronectin [8]: 45%
inhibition of cell growth in a 3D matrix setting (TNBC cells) [8]: 70%
inhibition of motility towards fibronectin in a Boyden chamber assay [8]: 56%
% of stained cells [9]: 66.7%
MFI [9]: 379
% of stained cells [10]: 83.8%
MFI [10]: 53.8
% of stained cells [11]: 99.7%
MFI [11]: 694
% of stained cells [12]: 71.7%
MFI [12]: 196
% of stained cells [13]: 96.1%
MFI [13]: 714
Substance: CSPG4-specific mAb 225.28 (antibody)

% of stained cells [1]: 1.4%
MFI [1]: 2.7
% of stained cells [2]: 0.3%
MFI [2]: 2.7
% of stained cells [3]: 12%
MFI [3]: 6.1
% of stained cells [4]: 13.8%
MFI [4]: 11.9
% of stained cells [5]: 0.9%
MFI [5]: 2.8
% of stained cells [6]: 0.1%
MFI [6]: 2.1
% of stained cells [7]: 2.5%
MFI [7]: 2.5
% of stained cells [9]: 52.6%
MFI [9]: 34.2
% of stained cells [10]: 88.4%
MFI [10]: 142
% of stained cells [11]: 91.9%
MFI [11]: 40.4
% of stained cells [12]: 17.6%
MFI [12]: 14.5
% of stained cells [13]: 86.8%
MFI [13]: 63.3
Substance: CSPG4-specific mAb TP41.2 (antibody)

% of stained cells [1]: 3%
MFI [1]: 3.1
% of stained cells [2]: 0.5%
MFI [2]: 3.4
% of stained cells [3]: 16.6%
MFI [3]: 6.9
% of stained cells [4]: 17.4%
MFI [4]: 13.8
% of stained cells [5]: 1.3%
MFI [5]: 2.8
% of stained cells [6]: 0%
MFI [6]: 2
% of stained cells [7]: 2.6%
MFI [7]: 2.4
% of stained cells [9]: 61.4%
MFI [9]: 39.2
% of stained cells [10]: 91.2%
MFI [10]: 154
% of stained cells [11]: 96.4%
MFI [11]: 50.5
% of stained cells [12]: 33.9%
MFI [12]: 17.6
% of stained cells [13]: 93.5%
MFI [13]: 79.2
Substance: CSPG4-specific mAb 763.74 (antibody)
